Sequences and labels used below:
B1: Pistol ribozyme (parent)
chain: GGGUCGUUGUUCCAUAAUCGCGUGGAUAUGGCACGCAAGUUUCUACCGGGCACCGUAAAUGUCCGACUGGAGCCGUUCGGGCGGCUAUAAACAGACCUCAGGCCCGAAGCGUGGCGGCACCUGCCGCCGGUGGUAAAAAAGAUCGGAAGAGCACACGUCU

In this data set the parent is B1. Put plainly: aptazyme ON/OFF ratio, guanine; higher = stronger switching; co-transcriptional cleavage with and without guanine.
As to U7C G9A U11G C13U, the “aptazyme ON/OFF ratio” value was found to be 1.11.

As to U7C G9A U11G C13G, the “aptazyme ON/OFF ratio” value was found to be 1.07.

Consider U7C G9A U11G C13A, for which the “aptazyme ON/OFF ratio” value came to 1.46.

Take U7C G9U U10A U11A C13G: the “aptazyme ON/OFF ratio” value is 1.04.

For the variant U7C G9U U10A U11A C13A, the “aptazyme ON/OFF ratio” value came to 1.26.

As to U7C G9U U10A U11A C13U, the “aptazyme ON/OFF ratio” value came to 1.25.

For U7C G9C U11C C12A, the “aptazyme ON/OFF ratio” value came out at 1.03.

With U7C G9C U11C C12G, the “aptazyme ON/OFF ratio” value came out at 1.04.

Consider U7C G9C U11C C12U, for which the “aptazyme ON/OFF ratio” value came to 1.04.

Turning to U7C G9C C13A, the “aptazyme ON/OFF ratio” value is 1.03.

Take U7C G9C C13G: the “aptazyme ON/OFF ratio” value is 1.05.

U7C G9C C13U: the “aptazyme ON/OFF ratio” value was 1.01.

As for U7C G9C U10G U11A C12U C13A, the “aptazyme ON/OFF ratio” value was found to be 1.19.

Take U7C G9C U10G U11A C12U C13U: the “aptazyme ON/OFF ratio” value worked out at 1.15.

As for U7C G9C U10G U11A C12U C13G, the “aptazyme ON/OFF ratio” value came to 1.05.

On to U7C G9C U10G U11C C12G C13G, for which the “aptazyme ON/OFF ratio” value was 1.13.

In the case of U7C G9C U10G U11C C12G C13A, the “aptazyme ON/OFF ratio” value is 1.16.

For U7C G9C U10G U11C C12G C13U, the “aptazyme ON/OFF ratio” value was 1.12.

For U7C G9U U10A U11C C12G C13G, the “aptazyme ON/OFF ratio” value stood at 1.19.

Turning to U7C G9U U10A U11C C12G C13A, the “aptazyme ON/OFF ratio” value was determined as 1.16.

Take U7C G9U U10A U11C C12G C13U: the “aptazyme ON/OFF ratio” value is 1.15.

Regarding U7C G9C U10C U11G C12U C13G, the “aptazyme ON/OFF ratio” value was determined as 1.1.

U7C G9C U10C U11G C12U C13U: the “aptazyme ON/OFF ratio” value came to 1.09.

As for U7C G9C U10C U11G C12U C13A, the “aptazyme ON/OFF ratio” value was found to be 1.08.

In the case of U7C G9C U10G C12G C13U, the “aptazyme ON/OFF ratio” value is 1.1.

Turning to U7C G9C U10G C12G C13A, the “aptazyme ON/OFF ratio” value stood at 1.11.

Regarding U7C G9C U10G C12G C13G, the “aptazyme ON/OFF ratio” value is 1.07.

As for U7C G9C U10C C13G, the “aptazyme ON/OFF ratio” value worked out at 1.04.

Regarding U7C G9C U10C C13A, the “aptazyme ON/OFF ratio” value was determined as 1.04.

U7C G9C U10C C13U: the “aptazyme ON/OFF ratio” value worked out at 1.08.

With U7C G9C U10C U11G C13U, the “aptazyme ON/OFF ratio” value is 1.19.

Consider U7C G9C U10C U11G C13A, for which the “aptazyme ON/OFF ratio” value came to 1.12.

As for U7C G9C U10C U11G C13G, the “aptazyme ON/OFF ratio” value turned out to be 1.05.

In the case of U7C G9C U10A U11A C12G, the “aptazyme ON/OFF ratio” value came out at 1.09.

With U7C G9C U10A U11A C12A, the “aptazyme ON/OFF ratio” value is 1.16.

For the variant U7C G9C U10A U11A C12U, the “aptazyme ON/OFF ratio” value was 1.05.

In the case of U7C G9U C12U, the “aptazyme ON/OFF ratio” value is 1.07.

Take U7C G9U C12G: the “aptazyme ON/OFF ratio” value was 1.14.

For the variant U7C G9U C12A, the “aptazyme ON/OFF ratio” value stood at 1.13.

Regarding U7C G9C U10G C12G, the “aptazyme ON/OFF ratio” value was determined as 1.13.

With U7C G9C U10G C12U, the “aptazyme ON/OFF ratio” value turned out to be 1.2.

As to U7C G9C U10G C12A, the “aptazyme ON/OFF ratio” value was found to be 1.12.

For the variant U7C G9C U10G U11A C12A, the “aptazyme ON/OFF ratio” value amounted to 1.25.

As for U7C G9C U10G U11A C12G, the “aptazyme ON/OFF ratio” value turned out to be 1.23.

In the case of U7C G9C U10G U11A C12U, the “aptazyme ON/OFF ratio” value turned out to be 1.15.

In the case of U7C G9C U10G C12A C13A, the “aptazyme ON/OFF ratio” value was determined as 1.15.

Regarding U7C G9C U10G C12A C13U, the “aptazyme ON/OFF ratio” value was found to be 1.12.

As for U7C G9C U10G C12A C13G, the “aptazyme ON/OFF ratio” value is 1.14.

Turning to U7C G9C U10A U11A C12G C13U, the “aptazyme ON/OFF ratio” value was found to be 1.07.

Regarding U7C G9C U10A U11A C12G C13G, the “aptazyme ON/OFF ratio” value worked out at 1.12.

With U7C G9C U10A U11A C12G C13A, the “aptazyme ON/OFF ratio” value amounted to 1.08.

For U7C G9C U10G U11C C12A C13G, the “aptazyme ON/OFF ratio” value came to 1.09.

As to U7C G9C U10G U11C C12A C13A, the “aptazyme ON/OFF ratio” value amounted to 1.12.

Take U7C G9C U10G U11C C12A C13U: the “aptazyme ON/OFF ratio” value is 1.11.

Consider U7C G9C U10C U11C C12G, for which the “aptazyme ON/OFF ratio” value came out at 1.03.

Regarding U7C G9C U10C U11C C12A, the “aptazyme ON/OFF ratio” value worked out at 1.03.

For U7C G9C U10C U11C C12U, the “aptazyme ON/OFF ratio” value came out at 1.01.

U7C G9C U11G C12U: the “aptazyme ON/OFF ratio” value was 1.08.

In the case of U7C G9C U11G C12A, the “aptazyme ON/OFF ratio” value was 1.01.

Turning to U7C G9C U11G C12G, the “aptazyme ON/OFF ratio” value amounted to 1.13.

Consider U7C G9C U11C C13G, for which the “aptazyme ON/OFF ratio” value is 1.02.

As for U7C G9C U11C C13A, the “aptazyme ON/OFF ratio” value stood at 1.02.

For U7C G9C U11C C13U, the “aptazyme ON/OFF ratio” value is 1.

On to U7C G9C U10C U11A C13U, for which the “aptazyme ON/OFF ratio” value stood at 1.03.

With U7C G9C U10C U11A C13A, the “aptazyme ON/OFF ratio” value worked out at 1.09.

Turning to U7C G9C U10C U11A C13G, the “aptazyme ON/OFF ratio” value is 1.05.

For U7C G9C U10C C12G C13A, the “aptazyme ON/OFF ratio” value came to 1.09.

As to U7C G9C U10C C12G C13U, the “aptazyme ON/OFF ratio” value was 1.08.

As for U7C G9C U10C C12G C13G, the “aptazyme ON/OFF ratio” value stood at 1.12.

U7C G9C U10A U11A C12A C13A: the “aptazyme ON/OFF ratio” value stood at 1.09.

On to U7C G9C U10A U11A C12A C13G, for which the “aptazyme ON/OFF ratio” value was found to be 1.08.

For the variant U7C G9C U10A U11A C12A C13U, the “aptazyme ON/OFF ratio” value was 1.06.

For the variant U7C G9C U10A U11G C12U C13G, the “aptazyme ON/OFF ratio” value is 1.08.

U7C G9C U10A U11G C12U C13A: the “aptazyme ON/OFF ratio” value came to 1.12.

For U7C G9C U10A U11G C12U C13U, the “aptazyme ON/OFF ratio” value amounted to 1.13.

On to U7C G9C C12A C13A, for which the “aptazyme ON/OFF ratio” value stood at 1.05.

On to U7C G9C C12A C13G, for which the “aptazyme ON/OFF ratio” value turned out to be 1.07.

Consider U7C G9C C12A C13U, for which the “aptazyme ON/OFF ratio” value was 1.02.

For U7C G9U U10A C12U C13G, the “aptazyme ON/OFF ratio” value was found to be 1.11.

For the variant U7C G9U U10A C12U C13U, the “aptazyme ON/OFF ratio” value is 1.22.

Turning to U7C G9U U10A C12U C13A, the “aptazyme ON/OFF ratio” value stood at 1.15.

For U7C G9U U10A U11C C12A C13U, the “aptazyme ON/OFF ratio” value is 1.23.

Turning to U7C G9U U10A U11C C12A C13A, the “aptazyme ON/OFF ratio” value worked out at 1.22.

The values above are taken from the RNAGym collection of RNA variant scans (doi:10.1021/acssynbio.7b00057).
